Columns and labels:
[1] = target: T1, CBD-intein-S-TEV site-liraglutide fusion protein
T1 chain: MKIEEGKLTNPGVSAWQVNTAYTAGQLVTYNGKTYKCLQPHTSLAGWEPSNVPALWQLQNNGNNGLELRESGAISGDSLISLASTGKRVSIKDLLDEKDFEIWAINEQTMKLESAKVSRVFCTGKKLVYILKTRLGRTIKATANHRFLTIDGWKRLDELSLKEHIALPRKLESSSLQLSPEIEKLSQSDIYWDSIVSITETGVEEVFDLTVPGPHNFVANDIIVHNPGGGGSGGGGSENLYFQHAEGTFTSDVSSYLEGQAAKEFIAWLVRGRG

[2] = target: T2, CBD-intein-Spacer(S)-TEV site-teriparatide fusion protein
T2 chain: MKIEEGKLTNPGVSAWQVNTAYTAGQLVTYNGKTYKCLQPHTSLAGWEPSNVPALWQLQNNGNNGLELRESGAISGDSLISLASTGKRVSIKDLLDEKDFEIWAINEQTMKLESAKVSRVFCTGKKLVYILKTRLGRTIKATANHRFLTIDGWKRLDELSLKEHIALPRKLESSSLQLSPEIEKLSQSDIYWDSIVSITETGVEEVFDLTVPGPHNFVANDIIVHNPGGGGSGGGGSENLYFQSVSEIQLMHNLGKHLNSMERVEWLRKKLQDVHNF

B1: TEV protease (protein)
chain: GESLFKGPRDYNPISSTICHLTNESDGHTTSLYGIGFGPFIITNKHLFRRNNGTLLVQSLHGVFKVKNTTTLQQHLIDGRDMIIIRMPKDFPPFPQKLKFREPQREERICLVTTNFQTKSMSSMVSDTSCTFPSSDGIFWKHWIQTKDGQCGSPLVSTRDGFIVGIHSASNFTNTNNYFTSVPKNFMELLTNQEAQQWVSGWRLNADSVLWGGHKVFMSKPEEPFQPVKEATQLMNELVYSQ
[1]
  TEV protease-mediated cleavage of the fusion protein (SDS-PAGE, pH 8.0): cleavage by the TEV protease resulted in the release of liraglutide
[2]
  TEV protease-mediated cleavage of the fusion protein (SDS-PAGE and western blot, pH 8.0 and pH 7.0): cleavage by the TEV protease resulted in the release of teriparitide

Source: patent publication US20190352365
